Laboratory results as given in the Human Domainome abundance scans (Beltran et al. 2025).
± gives the uncertainty stated by the source.

B1: Nuclear receptor subfamily 4 group A member 2, residues 260 to 336; numbered along this chain, P43354 (parent)
chain: EGLCAVCGDNAACQHYGVRTCEGCKGFFKRTVQKNAKYVCLANKNCPVDKRRRNRCQYCRFQKCLAVGMVKEVVRTD

Variants of: B1
Test: abundance fitness (aPCA) (normalised: wild type 0, dead -1); higher = more abundant; growth selection in yeast, the domain comes from the species named
Conditions: Homo sapiens

| Variant | abundance fitness |
| --- | --- |
| EGLCAVCGDNAACQHYGVRTCEGCKGFFKRTVQKNAKYVCLANKNCPVDKRRRNRCQYCRFQKCSAVGMVKEVVRTD | -0.308 ± 0.1 |
| EGLCAVCGDNAACQHYGVRTCEGCKGFFKRTVQKNAKYVCLANKNCPVDKRRRNRCQYCRFQKCGAVGMVKEVVRTD | -0.264 ± 0.037 |
| EGLCAVCGDNAACQHYGVRTCEGCKGFFKRTVQKNAKYVCLANKNCPVDKRRRNRCQYCRFQKCWAVGMVKEVVRTD | -0.299 ± 0.059 |
| EGLCAVCGDNAACQHYGVRTCEGCKGFFKRTVQKNAKYVCLANKNCPVDKRRRNRCQYCRFQKCNAVGMVKEVVRTD | 0.153 ± 0.32 |
| EGLCAVCGDNAACQHYGVRTCEGCKGFFKRTVQKNAKYVCLANKNCPVDKRRRNRCQYCSFQKCLAVGMVKEVVRTD | -0.033 ± 0.092 |
| EGLCAVCGDNAACQHYGVRTCEGCKGFFKRTVQKNAKYVCLANKNCPVDKRRRNRCQYCWFQKCLAVGMVKEVVRTD | 0.014 ± 0.05 |
| EGLCAVCGDNAACQHYGVRTCEGCKGFFKRTVQKNAKYVCLANKNCPVDKRRRNRCQYCCFQKCLAVGMVKEVVRTD | 0.101 ± 0.066 |
| EGLCAVCGDNAACQHYGVRTCEGCKGFFKRTVQKNAKYVCLANKNCPVDKRRRNRCQYCIFQKCLAVGMVKEVVRTD | -0.355 ± 0.3 |
| EGLCAVCGDNAACQHYGVRTCEGCKGFFKRTVQKNAKYVCLANKNCPVDKRRRNRCQYCMFQKCLAVGMVKEVVRTD | 0.053 ± 0.14 |
| EGLCAVCGDNAACQHYGVRTCEGCKGFFKRTVQKNAKYVCLANKNCPVDKRRRNRCQYCGFQKCLAVGMVKEVVRTD | -0.648 ± 0.052 |
| EGLCAVCGDNAACQHYGVRTCEGCKGFFKRTVQKNAKYVCLANKNCPVDKRRRNRCQYCFFQKCLAVGMVKEVVRTD | -0.115 ± 0.12 |
| EGLCAVCGDNAACQHYGVRTCEGCKGFFKRTVQKNAKYVCLANKNCPVDKRRRNRCQYCVFQKCLAVGMVKEVVRTD | 0.01 ± 0.044 |
| EGLCAVCGDNAACQHYGVRTCEGCKGFFKRTVQKNAKYVCLANKNCPVDKRRRNRCQYCLFQKCLAVGMVKEVVRTD | 0.047 ± 0.071 |
| EGLCAVCGDNAACQHYGVRTCEGCKGFFKRTVQKNAKYVCLANKNCPVDKRRRNRCQYCEFQKCLAVGMVKEVVRTD | -0.651 ± 0.18 |
| EGLCAVCGDNAACQHYGVRTCEGCKGFFKRTVQKNAKYVCLANKNCPVDKRRRNRCQYCRSQKCLAVGMVKEVVRTD | -0.235 ± 0.21 |
| EGLCAVCGDNAACQHYGVRTCEGCKGFFKRTVQKNAKYVCLANKNCPVDKRRRNRCQYCRRQKCLAVGMVKEVVRTD | -0.989 ± 0.19 |
| EGLCAVCGDNAACQHYGVRTCEGCKGFFKRTVQKNAKYVCLANKNCPVDKRRRNRCQYCRDQKCLAVGMVKEVVRTD | -0.745 ± 0.24 |
| EGLCAVCGDNAACQHYGVRTCEGCKGFFKRTVQKNAKYVCLANKNCPVDKRRRNRCQYCRIQKCLAVGMVKEVVRTD | 0.007 ± 0.26 |

| Variant | abundance fitness |
| --- | --- |
| EGLCAVCGDNAACQHYGVRTCEGCKGFFKRTVQKNAKYVCLANKNCPVDKRRRNRCQYCRVQKCLAVGMVKEVVRTD | -0.401 ± 0.046 |
| EGLCAVCGDNAACQHYGVRTCEGCKGFFKRTVQKNAKYVCLANKNCPVDKRRRNRCQYCRTQKCLAVGMVKEVVRTD | -0.377 ± 0.21 |
| EGLCAVCGDNAACQHYGVRTCEGCKGFFKRTVQKNAKYVCLANKNCPVDKRRRNRCQYCRQQKCLAVGMVKEVVRTD | -0.187 ± 0.27 |
| EGLCAVCGDNAACQHYGVRTCEGCKGFFKRTVQKNAKYVCLANKNCPVDKRRRNRCQYCRMQKCLAVGMVKEVVRTD | 0.072 ± 0.13 |
| EGLCAVCGDNAACQHYGVRTCEGCKGFFKRTVQKNAKYVCLANKNCPVDKRRRNRCQYCRCQKCLAVGMVKEVVRTD | -0.701 ± 0.099 |
| EGLCAVCGDNAACQHYGVRTCEGCKGFFKRTVQKNAKYVCLANKNCPVDKRRRNRCQYCRWQKCLAVGMVKEVVRTD | -0.05 ± 0.059 |
| EGLCAVCGDNAACQHYGVRTCEGCKGFFKRTVQKNAKYVCLANKNCPVDKRRRNRCQYCRLQKCLAVGMVKEVVRTD | 0.057 ± 0.07 |
| EGLCAVCGDNAACQHYGVRTCEGCKGFFKRTVQKNAKYVCLANKNCPVDKRRRNRCQYCRGQKCLAVGMVKEVVRTD | -1.01 ± 0.083 |
| EGLCAVCGDNAACQHYGVRTCEGCKGFFKRTVQKNAKYVCLANKNCPVDKRRRNRCQYCRFQWCLAVGMVKEVVRTD | -0.569 ± 0.078 |
| EGLCAVCGDNAACQHYGVRTCEGCKGFFKRTVQKNAKYVCLANKNCPVDKRRRNRCQYCRFQMCLAVGMVKEVVRTD | -0.025 ± 0.18 |
| EGLCAVCGDNAACQHYGVRTCEGCKGFFKRTVQKNAKYVCLANKNCPVDKRRRNRCQYCRFQLCLAVGMVKEVVRTD | -0.354 ± 0.088 |
| EGLCAVCGDNAACQHYGVRTCEGCKGFFKRTVQKNAKYVCLANKNCPVDKRRRNRCQYCRFQECLAVGMVKEVVRTD | -0.898 ± 0.27 |
| EGLCAVCGDNAACQHYGVRTCEGCKGFFKRTVQKNAKYVCLANKNCPVDKRRRNRCQYCRFQGCLAVGMVKEVVRTD | -0.559 ± 0.044 |
| EGLCAVCGDNAACQHYGVRTCEGCKGFFKRTVQKNAKYVCLANKNCPVDKRRRNRCQYCRFQRCLAVGMVKEVVRTD | -0.206 ± 0.072 |
| EGLCAVCGDNAACQHYGVRTCEGCKGFFKRTVQKNAKYVCLANKNCPVDKRRRNRCQYCRFQVCLAVGMVKEVVRTD | -0.304 ± 0.046 |
| EGLCAVCGDNAACQHYGVRTCEGCKGFFKRTVQKNAKYVCLANKNCPVDKRRRNRCQYCRFQACLAVGMVKEVVRTD | -0.048 ± 0.095 |
| EGLCAVCGDNAACQHYGVRTCEGCKGFFKRTVQKNAKYVCLANKNCPVDKRRRNRCQYCRFQTCLAVGMVKEVVRTD | 0.038 ± 0.15 |
| EGLCAVCGDNAACQHYGVRTCEGCKGFFKRTVQKNAKYVCLANKNCPVDKRRRNRCQYCRFQDCLAVGMVKEVVRTD | -0.52 ± 0.29 |
